Source: patent publication US20260193356A1
One block for each binder: values may come before it.

Key:
[1] = target: dog (Canis lupus) PDL1 (dPDL1) expressed on CHO-S cells (CHO-S-dPDL1) (dog (Canis lupus)); test: flow cytometry on CHO-S-dPDL1 cells; antibody 0.1 µg/mL
[2] = target: dog (Canis lupus) PDL1 (dPDL1) expressed on CHO-S cells (CHO-S-dPDL1) (dog (Canis lupus)); test: flow cytometry on CHO-S-dPDL1 cells; antibody 1 µg/mL

dog (Canis lupus) PDL1 (dPDL1) expressed on CHO-S cells (CHO-S-dPDL1) (dog (Canis lupus)), sequence (chain, as listed by the source limits assumed, form in doubt): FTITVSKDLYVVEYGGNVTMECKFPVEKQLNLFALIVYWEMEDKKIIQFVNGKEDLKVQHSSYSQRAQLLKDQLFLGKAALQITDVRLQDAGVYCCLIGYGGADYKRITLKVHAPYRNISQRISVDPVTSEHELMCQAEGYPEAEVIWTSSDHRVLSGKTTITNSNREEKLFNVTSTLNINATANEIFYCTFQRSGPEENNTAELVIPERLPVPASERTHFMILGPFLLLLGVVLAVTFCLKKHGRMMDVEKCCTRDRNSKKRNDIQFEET

- Percentage of Positive Cells (%) [1]: 50.5%
- Percentage of Positive Cells (%) [2]: 62.5%
B1: B21A06-N297A (antibody, human IgG1, V domains shown)
VH: QVQLQESGGDVVQPGRSLRLSCAASGFTFNNYGMHWVRQAPSKGLEWVAFIWYDGSNKYYGDSVKGRFTISRDNSKNTLYLQMNSLRAEDTALYYCARGDNWNSDAFDIWGPGTMVTVSS
VL: EIVMTQSPLSLPVTLGQPASISCRSSQSLVYTNGNTYLNWFQQRPGQSPRRLIYKVSSRDSGVPDRFSGSGSGTDFTLKISRVAAEDVGLYYCMQGTHWPLTFGGGTKVEIK

- Percentage of Positive Cells (%) [1]: 53.1%
- Percentage of Positive Cells (%) [2]: 70.7%
B2: B20B02-N297A (antibody, human IgG1, V domains shown)
VH: QVQLQQSGGGVVQPGRSLRLSCAASGFTFSTYGMHWVRQAPGKGLEWVAALSFDGGNIYYGDSVKGRFTISRDNSKNTLYLQMNSLRAEDTALYYCAKARLPYSYDAVDYWGQGTLVTVSS
VL: EIVMTQSPATLSVSPGERATLSCRASQSVSSNLAWYQQKPGQAPRLLIYDTSTRAIGIPARFSGSGSGTEFTLTISSLQSEDFAIYYCHQYNFWPPITLGQGTRLEIK

- Percentage of Positive Cells (%) [1]: 51%
- Percentage of Positive Cells (%) [2]: 67.8%
B3: B22E02-N297A (antibody, human IgG1, V domains shown)
VH: QVQLVQSGGGLVQPGRSLRLSCRASGFTFDGYSMNWVRQAPGKGLEWVGFIRSKGYGGTSESAASVKGRFTISRDDSKSIAYLQMNSLKTEDTAVYYCTRTRNWNDEGYFDYWGLGTLVTVSS
VL: DIQMTQSPSSLSASVGDRVTITCQASQDINKYLNWYQQKPGKAPKLLIYDASNSETGVPSRFSGSGSGTDFTFTISSLQPEDISTYYCQQYDILPITFGQGTRLEIK
